The subject of the data set is PSN1 or SUIT2. The experiment in a line: In vivo imaging of IRDye800-labeled antibodies in tumor-bearing mice. On the set-up: species or system BALB/c nude mouse. The following applies: imaged 1, 3, 7 and 14 days after administration. The method, then:
PSN1 or SUIT2 was transplanted to the back of each BALB/c nude mouse (female, 6-week-old); 10 days after the transplantation, each antibody (labeled with IRDye800 (Li-Cor)) was administered from a tail vein of the mouse. 1 day, 3 days, 7 days, and 14 days after the administration, the antibody distribution was analyzed using the in vivo imaging apparatus OV110 (Olympus).
In the figure, CD20 stands for the antihuman CD20 antibody, EpCAM for the antihuman EpCAM antibody, and Col. 4 for the antimouse type IV collagen antibody.

Turning to “antihuman CD20 antibody: monoclonal antibody against human B cells, does not react with SUIT2; control”, the “accumulation in tumor tissue” value (IRDye800-labeled antibody via tail vein 10 days after transplantation) is “accumulated selectively in tumor tissue due to an EPR effect”. Besides, the “duration of stay in / disappearance from tumor tissue” value (IRDye800-labeled antibody via tail vein) is reported as “disappeared from the tumor tissue earlier than the antimouse type IV collagen antibody”.

The values are drawn from patent US20110287036A1, “NOVEL CANCER TARGETING THERAPY USING COMPLEX OF SUBTANCE CAPABLE OF BINDING SPECIFICALLY TO CONSTITUENT FACTOR OF CANCER STROMA AND ANTI-TUMOR COMPOUND” (RIKEN, priority 2008, published 2011).
